The source of these data is paper PMC3206214 (Molecular cell, 2011).

Experiment in all cases: far-Western, overlay or dot blot
The target in one assay is MBP-BSU1 (Arabidopsis, UniProt Q9LR78 1-793).
Assay [1] has as its target MBP-BSU1 pre-incubated with GST-CDG1 and ATP (Arabidopsis, UniProt Q9LR78 1-793, phosphoserine at 764 (by CDG1)).
The target in another assay is T1, MBP-BSU1-S764A (Arabidopsis, UniProt Q9LR78 1-793, S764A).
T1 sequence (looked up): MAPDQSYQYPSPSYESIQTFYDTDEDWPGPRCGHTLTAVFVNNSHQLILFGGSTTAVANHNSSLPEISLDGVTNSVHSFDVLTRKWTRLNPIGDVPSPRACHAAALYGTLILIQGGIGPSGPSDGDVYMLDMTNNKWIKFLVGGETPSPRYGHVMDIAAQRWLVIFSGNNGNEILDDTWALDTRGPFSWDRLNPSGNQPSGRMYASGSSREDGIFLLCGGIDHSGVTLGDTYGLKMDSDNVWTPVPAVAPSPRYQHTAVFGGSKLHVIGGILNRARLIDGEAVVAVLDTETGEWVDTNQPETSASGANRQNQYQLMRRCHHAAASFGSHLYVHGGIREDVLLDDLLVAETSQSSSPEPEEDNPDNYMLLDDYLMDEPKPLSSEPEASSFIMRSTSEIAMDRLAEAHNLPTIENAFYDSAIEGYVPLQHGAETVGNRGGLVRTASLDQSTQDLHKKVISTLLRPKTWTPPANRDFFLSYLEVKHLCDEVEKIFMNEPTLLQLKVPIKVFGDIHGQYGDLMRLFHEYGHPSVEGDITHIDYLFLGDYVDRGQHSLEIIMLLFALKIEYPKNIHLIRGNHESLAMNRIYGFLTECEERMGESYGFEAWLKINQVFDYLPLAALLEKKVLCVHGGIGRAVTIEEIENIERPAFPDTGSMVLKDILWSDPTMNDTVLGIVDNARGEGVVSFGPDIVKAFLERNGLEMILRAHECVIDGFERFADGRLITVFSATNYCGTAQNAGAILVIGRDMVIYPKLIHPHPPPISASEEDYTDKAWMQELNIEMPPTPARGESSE

B1: GST-CDG1 (natural protein, Arabidopsis, UniProt Q9LSE1 1-432, looked up)
chain: MVSCLCFRPSRKTKLKDKSHKRSIRNQTSSSSAQPAGTAKEVDSSSSQTVVQDSSRYRCQIFSYRELAIATNSFRNESLIGRGGFGTVYKGRLSTGQNIAVKMLDQSGIQGDKEFLVEVLMLSLLHHRNLVHLFGYCAEGDQRLVVYEYMPLGSVEDHLYDLSEGQEALDWKTRMKIALGAAKGLAFLHNEAQPPVIYRDLKTSNILLDHDYKPKLSDFGLAKFGPSDDMSHVSTRVMGTHGYCAPEYANTGKLTLKSDIYSFGVVLLELISGRKALMPSSECVGNQSRYLVHWARPLFLNGRIRQIVDPRLARKGGFSNILLYRGIEVAFLCLAEEANARPSISQVVECLKYIIDHTIRKERRTRRRLLGGNKDGAGTSRSPDETMMRMLEEEEEYVTSEEAIERRRVIVDDARTWAGMNRRGATPPTPTP
For B1, the binding result with MBP-BSU1 was “binds”.

B2: GST-CDG1 pre-incubated with GST-BRI1-K and ATP (natural protein, Arabidopsis, UniProt Q9LSE1 1-432, looked up)
chain: B1 chain
modifications: phosphoserine at 44, 47 and 234 (BRI1 phosphorylation sites, found by mass spectrometry on GST-CDG1-Y147G)
In the case of B2, the binding result with MBP-BSU1 is recorded as “binds”.

B3: GST-BIN2 (natural protein, Arabidopsis, UniProt Q39011 1-380, looked up)
chain: MADDKEMPAAVVDGHDQVTGHIISTTIGGKNGEPKQTISYMAERVVGTGSFGIVFQAKCLETGETVAIKKVLQDRRYKNRELQLMRVMDHPNVVCLKHCFFSTTSKDELFLNLVMEYVPESLYRVLKHYSSANQRMPLVYVKLYMYQIFRGLAYIHNVAGVCHRDLKPQNLLVDPLTHQVKICDFGSAKQLVKGEANISYICSRFYRAPELIFGATEYTTSIDIWSAGCVLAELLLGQPLFPGENAVDQLVEIIKVLGTPTREEIRCMNPHYTDFRFPQIKAHPWHKIFHKRMPPEAIDFASRLLQYSPSLRCTALEACAHPFFDELREPNARLPNGRPFPPLFNFKQEVAGSSPELVNKLIPDHIKRQLGLSFLNQSGT
B3: the binding result (in assay [1]; in the assay with MBP-BSU1-S764A) was “binds” in each case.
